Results on eight molecules are retold here after patent US20240336907A1, “NOVEL ENDO-ß-N-ACETYLGLUCOSAMINIDASE” (priority 2020, published 2024).

B1: Endo-Si T190Q (protein)
chain: MNKRLLVKRTFGCVCAAAILGVAPLSHPTIVEAREELKMPNGLEQSIADVEAKIDALTYLSKNSKDEFKHSMYEIPSNREHKPVSPKQALQNAKKADAQAERLAKMTIPKKEELKALEGPLYGGYFRTWQDKTSDPTETNKVNSFGELPKEVDLAFVFHDYTKDYSLFWEELATKQVPKLNKQGTRVIRQIPWRFLSGADHSDISADKEKFPNTEAGNKALAKAIVDEYVYKYNLDGLDIDIERDSVPKVNDKEDPEALARTVEVFKEIGKLIGANGADKSRLLIMDTTYTAEENPLIKETAQYLNLLLVQVYGFSGENGNYLHHKNILDETSSMEGRWQGYSKYIRPEQYMVGFSFYEEKDFNNRWKDINEEDPSDPHIGEKIQGTRAERYAKWQPKTGGLKGGLFSYAIDRDGVAQPKQKTEHPELDKIVKSEYKVSKALKKLMMTDDQYQPIDQSDFPDKALRESIIKQVGTRRGDLERFKGTLRLDNPEIKDLTGLNKLKRVAKLELINLPKITKIDKDDLPQNLKPLTDNQKSNLEIKGTYDDSKLYKDIPAFDLVISGLSGLESLDISGHQRDTLSGIDASTLPSLKAINISDNHFDLAQGTENRHILDTILATLAKNGASTASFDKQKPKGLYPESYSTAPLHLQVGQGKINVIDDLIFGTRTNQNTLINTENDFEAYKEQTIQGKPFIAPDYLYDNFKVSYKEYSASIVDSTLAETTDKTIDTAKAETYQVTVSNKDGKTVHSVKVIVGDEKPMMVNLAQDAKIIGTDNMTQSAKVFDGQKDQFLLSWNKDSSVIFELKTPGTAKHWRFFDDGKNDSVTLSVFKGDASNFETEKDKAENWVEITKDSRKNDDKVFSSPLEVDNAKYLKVTIKKEAKYIYFNELQILGYPGVVAKKTADDLRPTEADKSDDKSDKNDTEAK
modifications: Amino acid sequence of Endo-Si T190Q
B2: Endo-Si D241M/E360Q (protein)
chain: B1 chain with Q190T, D241M, E360Q
modifications: Amino acid sequence of Endo-Si D241M/E360Q
B3: Endo-Si D241Q/E360Q (protein)
chain: B1 chain with Q190T, D241Q, E360Q
modifications: Amino acid sequence of Endo-Si D241Q/E360Q
B4: Endo-Si T190Q/D241Q (protein)
chain: B1 chain with D241Q
modifications: Amino acid sequence of Endo-Si T190Q/D241Q
B5: Endo-Si D241Q/Q311L (protein)
chain: B1 chain with Q190T, D241Q, Q311L
modifications: Amino acid sequence of Endo-Si D241Q/Q311L
B6: Endo-Si D241M/Q311L (protein)
chain: B1 chain with Q190T, D241M, Q311L
modifications: Amino acid sequence of Endo-Si D241M/Q311L
B7: Endo-Si D241Q (protein)
chain: B1 chain with Q190T, D241Q
modifications: Amino acid sequence of Endo-Si D241Q
B8: Endo-Si T190Q/D241M (protein)
chain: B1 chain with D241M
modifications: Amino acid sequence of Endo-Si T190Q/D241M

Positions count from the first letter of the chain named. Names and notes keep the numbering of the source.

The first assay relates to (Fucα1,6)GlcNAc-mAb2. The assay can be described thus: Transglycosylation activity with SGP as donor, in combination with Endo-M N175Q. Format: biochemical. Particulars: 2 h; donor SGP (50 eq.), Endo-M N175Q 2.5 mU, Endo-Si enzyme 10 μg, 23° C., pH 7.5. On the procedure: Transglycosylation activity was evaluated as follows. A 50 mM (sodium) phosphate buffer (pH 7.5) solution (17 μL) containing (Fucα1,6)GlcNAc-mAb2 (0.5 mg), SGP (0.485 mg (50 eq.)), Endo-M N175Q (manufactured by Tokyo Kasei Kogyo Co., Ltd.) (2.5 mU) and each of various Endo-Si mutant enzymes (10 μg), was prepared and incubated at 23° C. A sample was taken from each of the reaction solutions at 2, 4, 6, 24, and 48 hours after initiation of the reaction and analyzed for protein by a fully automated electrophoresis system as mentioned above. In the chromatogram obtained, an unreacted product and a transglycosylated molecule, mAb2-(SG)2 are confirmed as discrete peaks. The transglycosylation rates were obtained based on the peak area ratio between the unreacted product and the transglycosylated molecule in accordance with the following expression.
Similarly, transglycosylation rates of individual Endo-Si mutant enzymes at each time period of a reaction were calculated (Table 6).
As to B1, the Transglycosylation rate worked out at 13.3%.

Regarding B2, the Transglycosylation rate came to 11.9%.

Turning to B3, the Transglycosylation rate is 8.9%.

On to B4, for which the Transglycosylation rate turned out to be 4.9%.

Regarding B5, the Transglycosylation rate was found to be 2.6%.

Take B6: the Transglycosylation rate stood at 6.4%.

As for B7, the Transglycosylation rate was 15.9%.

Turning to B8, the Transglycosylation rate is listed as 3.1%.

Still in this assay, the particulars now being: 4 h; donor SGP (50 eq.), Endo-M N175Q 2.5 mU, Endo-Si enzyme 10 μg, 23° C., pH 7.5.
For B1, the Transglycosylation rate was found to be 27.8%.

With B2, the Transglycosylation rate came to 27.7%.

For the molecule B3, the Transglycosylation rate is recorded as 20.0%.

Take B4: the Transglycosylation rate worked out at 10.6%.

Consider B5, for which the Transglycosylation rate came out at 5.6%.

For the molecule B6, the Transglycosylation rate is 13.7%.

In the case of B7, the Transglycosylation rate is on record as 35.6%.

For B8, the Transglycosylation rate stood at 6.4%.

The same assay, now with this note: 6 h; donor SGP (50 eq.), Endo-M N175Q 2.5 mU, Endo-Si enzyme 10 μg, 23° C., pH 7.5.
With B1, the Transglycosylation rate was 43.2%.

Turning to B2, the Transglycosylation rate amounted to 42.7%.

Consider B3, for which the Transglycosylation rate stood at 30.3%.

Regarding B4, the Transglycosylation rate stood at 21.4%.

As to B5, the Transglycosylation rate is recorded as 8.2%.

Consider B6, for which the Transglycosylation rate was 24.1%.

Turning to B7, the Transglycosylation rate was determined as 52.3%.

With B8, the Transglycosylation rate came to 13.8%.

The assay is the same for the next values; noted with them: 24 h; donor SGP (50 eq.), Endo-M N175Q 2.5 mU, Endo-Si enzyme 10 μg, 23° C., pH 7.5.
For the molecule B1, the Transglycosylation rate amounted to 93.8%.

Turning to B2, the Transglycosylation rate was determined as 98.0%.

Turning to B3, the Transglycosylation rate turned out to be 94.4%.

For B4, the Transglycosylation rate turned out to be 71.5%.

In the case of B5, the Transglycosylation rate is 48.6%.

For B6, the Transglycosylation rate worked out at 79.7%.

Regarding B7, the Transglycosylation rate was found to be 98.1%.

As for B8, the Transglycosylation rate amounted to 50.7%.

Staying with this assay, now noted: 48 h; donor SGP (50 eq.), Endo-M N175Q 2.5 mU, Endo-Si enzyme 10 μg, 23° C., pH 7.5.
On to B1, for which the Transglycosylation rate is reported as 93.3%.

Turning to B2, the Transglycosylation rate was 98.7%.

For the molecule B3, the Transglycosylation rate is listed as 98.5%.

For the molecule B4, the Transglycosylation rate is 92.5%.

For B5, the Transglycosylation rate was 76.3%.

For the molecule B6, the Transglycosylation rate amounted to 97.0%.

Take B7: the Transglycosylation rate turned out to be 98.5%.

As to B8, the Transglycosylation rate stood at 77.5%.

A further assay has as its system (Fucα1,6)GlcNAc-mAb2. The experiment in a line: Transglycosylation activity with sugar chain oxazoline [N3-PEG(3)]-MSG1(9)-Ox as donor. Particulars: 1 h; donor [N3-PEG(3)]-MSG1(9)-Ox (8 eq.), enzyme 1.25 μg, 28° C., pH 7.5. Format: biochemical. On the procedure: Transglycosylation activity was evaluated as follows. […] A sample was taken from each of the reaction solutions at 1, 2, 4, 6, and 24 hours after initiation of the reaction and analyzed for protein by a fully automated electrophoresis system as mentioned above. In the chromatogram obtained, an unreacted product and transglycosylated molecule, mAb2-(MSG1-N3)2 were confirmed as discrete peaks. The transglycosylation rate was calculated based on the peak-area ratio between the unreacted product and the transglycosylated molecule in accordance with the following expression.
Transglycosylation rate (%)=[[peak area of mAb2-(MSG1-N3)2-derived H chain]/{[peak area of (Fucα1,6)GlcNAc-mAb2-derived H chain]+[peak area of mAb2-(MSG1-N3)2-derived H chain]}]×100
Similarly, the transglycosylation rates of individual Endo-Si mutant enzymes at each time period for a reaction were calculated (Table 5).
As for B1, the Transglycosylation rate was 97.2%.

Molecule B2 registered a Transglycosylation rate of 99.1%.

Take B3: the Transglycosylation rate was determined as 73.5%.

B4 showed a Transglycosylation rate of 26.6%.

For B5, the Transglycosylation rate is given as 5.7%.

Turning to B6, the Transglycosylation rate was 31.8%.

The molecule B7 came in with a Transglycosylation rate of 75.2%.

Molecule B8 returned a Transglycosylation rate of 43.5%.

The same assay, now with this note: 2 h; donor [N3-PEG(3)]-MSG1(9)-Ox (8 eq.), enzyme 1.25 μg, 28° C., pH 7.5.
In turn, B1 showed a Transglycosylation rate of 91.8%.

B2 displayed a Transglycosylation rate of 99.0%.

In the case of B3, the Transglycosylation rate is on record as 96.8%.

Turning to B4, the Transglycosylation rate is given as 48.4%.

On to B5, for which the Transglycosylation rate was 11.6%.

As for B6, the Transglycosylation rate is on record as 59.1%.

As for B7, the Transglycosylation rate worked out at 97.0%.

Consider B8, for which the Transglycosylation rate is on record as 64.1%.

Still in this assay, the particulars now being: 4 h; donor [N3-PEG(3)]-MSG1(9)-Ox (8 eq.), enzyme 1.25 μg, 28° C., pH 7.5.
Molecule B1 came in with a Transglycosylation rate of 81.8%.

The molecule B2 registered a Transglycosylation rate of 96.2%.

For B3, the Transglycosylation rate was determined as 99.0%.

As to B4, the Transglycosylation rate is 83.3%.

In turn, B5 yielded a Transglycosylation rate of 27.4%.

Consider B6, for which the Transglycosylation rate is 95.9%.

Regarding B7, the Transglycosylation rate is on record as 99.1%.

For the molecule B8, the Transglycosylation rate stood at 92.7%.

The same assay, now with this note: 6 h; donor [N3-PEG(3)]-MSG1(9)-Ox (8 eq.), enzyme 1.25 μg, 28° C., pH 7.5.
Molecule B1 had a Transglycosylation rate of 76.7%.

Molecule B2 came in with a Transglycosylation rate of 95.5%.

For the molecule B3, the Transglycosylation rate was 99.6%.

Molecule B4 registered a Transglycosylation rate of 96.1%.

B5: the Transglycosylation rate was 44.4%.

As to B6, the Transglycosylation rate is given as 99.5%.

Regarding B7, the Transglycosylation rate is 99.6%.

B8 came in with a Transglycosylation rate of 98.7%.

The same assay, now with this note: 24 h; donor [N3-PEG(3)]-MSG1(9)-Ox (8 eq.), enzyme 1.25 μg, 28° C., pH 7.5.
For B1, the Transglycosylation rate worked out at 32.6%.

With B2, the Transglycosylation rate worked out at 75.9%.

Take B3: the Transglycosylation rate was found to be 98.9%.

The molecule B4 registered a Transglycosylation rate of 99.6%.

As for B5, the Transglycosylation rate came out at 99.3%.

Molecule B6 showed a Transglycosylation rate of 99.9%.

B7 displayed a Transglycosylation rate of 98.8%.

In the case of B8, the Transglycosylation rate stood at 99.6%.
